B1: PTS-CWC27 (1-472) (natural protein, human, UniProt Q6UX04 1-472, looked up)
chain: MSNIYIQEPPTNGKVLLKTTAGDIDIELWSKEAPKACRNFIQLCLEAYYDNTIFHRVVPGFIVQGGDPTGTGSGGESIYGAPFKDEFHSRLRFNRRGLVAMANAGSHDNGSQFFFTLGRADELNNKHTIFGKVTGDTVYNMLRLSEVDIDDDERPHNPHKIKSCEVLFNPFDDIIPREIKRLKKEKPEEEVKKLKPKGTKNFSLLSFGEEAEEEEEEVNRVSQSMKGKSKSSHDLLKDDPHLSSVPVVESEKGDAPDLVDDGEDESAEHDEYIDGDEKNLMRERIAKKLKKDTSANVKSAGEGEVEKKSVSRSEELRKEARQLKRELLAAKQKKVENAAKQAEKRSEEEEAPPDGAVAEYRREKQKYEALRKQQSKKGTSREDQTLALLNQFKSKLTQAIAETPENDIPETEVEDDEGWMSHVLQFEDKSRKVKDASMQDSDTFEIYDPRNPVNKRRREESKKLMREKKERR
B2: CWC27-C (354-472) (domain or fragment, human, UniProt Q6UX04 354-472, looked up)
chain: DGAVAEYRREKQKYEALRKQQSKKGTSREDQTLALLNQFKSKLTQAIAETPENDIPETEVEDDEGWMSHVLQFEDKSRKVKDASMQDSDTFEIYDPRNPVNKRRREESKKLMREKKERR

Target: T1, CBP-CWC22-S (residues 100-665) (human, UniProt Q9HCG8 100-665)
T1 sequence (looked up): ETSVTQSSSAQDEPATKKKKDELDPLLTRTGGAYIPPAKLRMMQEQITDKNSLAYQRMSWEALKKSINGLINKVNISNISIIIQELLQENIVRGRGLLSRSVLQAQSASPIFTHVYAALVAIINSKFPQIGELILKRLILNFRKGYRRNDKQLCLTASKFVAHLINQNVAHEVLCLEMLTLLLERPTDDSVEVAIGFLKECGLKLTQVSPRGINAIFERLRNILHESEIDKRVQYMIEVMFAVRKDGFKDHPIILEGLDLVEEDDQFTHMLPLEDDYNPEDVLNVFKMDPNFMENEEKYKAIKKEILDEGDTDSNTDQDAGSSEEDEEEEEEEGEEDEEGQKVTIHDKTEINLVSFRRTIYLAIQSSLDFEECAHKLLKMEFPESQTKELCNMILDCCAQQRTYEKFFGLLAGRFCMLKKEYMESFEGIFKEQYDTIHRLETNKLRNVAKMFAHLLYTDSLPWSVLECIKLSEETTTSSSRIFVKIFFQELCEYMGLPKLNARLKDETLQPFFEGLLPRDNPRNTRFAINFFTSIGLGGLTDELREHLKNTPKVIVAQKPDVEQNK
Assay: pull-down

| Binder | binding result |
| --- | --- |
| B1 | binds |
| B2 | binds |
